The record followed here is US20160032257A1, “AGENT AND METHOD FOR MODIFYING THE 5' CAP OF RNA” (UNIVERSITÄT HAMBURG, priority 2012, published 2016).

Residue numbers refer to the chain shown, from its start. In names and notes the source's numbering stands.

For data set [1], the target named is T1, Giardia lamblia trimethylguanosine synthase 2 (GlaTgs2) variant GlaTgs2-V34A (V34A), SEQ ID NO: 4 (Giardia duodenalis, UniProt A8BW33, V34A).
T1 construct: HPLC-coupled cap N2 methyl/alkyl transfer assay with m7GpppA, helper enzymes MTAN and LuxS
Nature of the data set: Enzymatic parameters of GlaTgs2-V34A with respect to AdoPropen and AdoMet (HPLC-coupled activity assay). In kind it is biochemical. On the procedure: (§1) The transfer of the propenyl (AdoPropen), pentenynyl (AdoEnYn) and benzyl (AdoBenzyl) residues carried by the synthetically produced AdoMet analogues onto the N2 atom of the guanosine of m^7GpppA (A=adenine) enzymatically catalysed by the WT-GlaTgs2 (SEQ ID NO: 1) and the proteins of the invention in accordance with SEQ ID NOs: 4-10 was investigated with the aid of a HPLC-coupled activity assay.
(§2) Reaction buffer 2: 50 mM Tris; 10 mM MgCl2; 100 mM NH4OAc; pH 8.4
(§3) MTAN stands for 5′-methylthioadenosine/S-adenosylhomocysteine nucleosidase. LuxS stands for S-ribosylhomocysteine lyase.
(§4) The quantities were adjusted in proportion for larger samples of 10 or 20 μL. The quantity of AdoMet analogue used was matched such that the area of the peak in the chromatogram for a diastereoisomer of the AdoMet analogue corresponded to the area of the signal caused by m^7GpppA. The reaction was in general stopped directly after starting the reaction (t0) and after three hours at 37° C. (t180) and examined using analytical HPLC as well as MALDI-TOF.

The test system of data set [2] is C=CC[S+](CCC(N)C(=O)O)C[C@H]1O[C@@H](n2cnc3c(N)ncnc32)C(O)[C@H]1O. Nature of the data set: Enzymatic parameters of GlaTgs2-WT with respect to AdoPropen (HPLC-coupled activity assay). To be noted: other: with respect to AdoPropen, pH 8.4, 37.0 °C. In kind it is biochemical, Giardia lamblia. On the procedure: as §1, §2, §3, §4
For another data set, the system named is m^7GpppA. Nature of the data set: HPLC-coupled activity assay: enzymatic transfer of the residue of an AdoMet analogue onto N2 of the guanosine of m^7GpppA. Type of data set: biochemical. To be noted: for m^7GpppA transformed: same quantity of enzyme; for TTN: Total Turnover Number. On the procedure: as §1, §2, §3, §4
Data set [3] is described as follows: Thermostability (T50, 15 min incubation, residual activity, Boltzmann fit). In kind it is physicochemical. To be noted: for T50 (thermostability): 15 minutes incubation, Table 4; for T50 (15 min): temperature at which enzyme loses 50% of its activity after 15 minutes incubation, Table 3. On the procedure:
The stability of a protein characterizes its ability to tolerate denaturing influences, such as an increase in the environmental temperature, within certain limits and to maintain the native conformation. The T50 value can be used as a measure of the thermostability.
is the temperature at which an enzyme loses 50% of its activity after 15 minutes incubation. In order to determine the T50 value, the protein to be analysed is heated for 15 minutes to different temperatures in a thermocycler while a sample of the protein is incubated on ice. Next, activity tests are carried out with the previously heated proteins. […] After normalizing the values,
can be obtained using a Boltzmann fit and “Origin” software.

Setting [4] is: with respect to AdoPropen, Table 3.

Turning to `C=CC[S+](CCC(N)C(=O)O)C[C@H]1O[C@@H](n2cnc3c(N)ncnc32)C(O)C1O` (stereo in doubt) [AdoPropen, 5′-[(S)-[(3S)-3-amino-3-carboxypropyl]prop-2-enylsulphonio]-5′-deoxyadenosine], the “affinity for AdoPropen” value in data set [1] (compared with the wild type enzyme GlaTgs2-WT) is listed as “higher affinity”. For the same molecule, the kcat (usually the number of substrate molecules converted per active site and unit of time at saturation) in data set [1] (with respect to AdoPropen, GlaTgs2-V34A) was determined as 0.003 ± 0.0013 s⁻¹.

For “Giardia lamblia trimethylguanosine synthase 2 (GlaTgs2-WT), wild type, SEQ ID NO: 1 (Giardia lamblia ATCC 50803)”, in data set [2], the Km is on record as 151 ± 19 μM μM and the catalytic constant (kcat) was 0.0015 ± 0.0013 s⁻¹.

B1: GlaTgs2-V34A: GlaTgs2 variant, valine at position 34 replaced by alanine, SEQ ID NO: 4 (protein, listed as Giardia lamblia)
chain: MSTWLLDSKCVERMKWLFSDLPEEKRVMIKMNEAAFFSVTPAVYADEVARMMRTVLALLGKPPYAVIDGTACVGGDTRLLAKHFDMTVAIERDPETYALLQDNLTTWGVDAKTISGDTAALIPQFWTLIGAVATFSLYLDPPWGGVDYRSQTDIQLTLGSLAVEDVVNRAFEAHLSMKLAVLKLPRNYNCGYLFRKLGKHEVFRITQGNFFVFFVARRGSRVKEHGRTAMLQLRKAREEAKARSEETKEDGETRGSGE
Take B1: the transfer of benzyl result in the data set with m^7GpppA (AdoBenzyl as AdoMet analogue) is “a transfer of benzyl was observed”. The “m^7GpppA transformed” value with m^7GpppA (AdoEnYn) was determined as 10%; with m^7GpppA (AdoPropen), 95%. Further, the TTN with m^7GpppA (AdoPropen, Table 2) came out at 10 ± 2; in the data set with m^7GpppA (setting [4]) it was 10. The “T50 (thermostability)” value in data set [3] was 40.4 ± 0.2. Moreover, in data set [3], the “T50 (15 min)” value stood at 40.4 ± 0.2 °C.

B2: GlaTgs2-V34M: GlaTgs2 variant, valine at position 34 replaced by methionine, SEQ ID NO: 6 (protein, listed as Giardia lamblia)
chain: B1 chain with A34M
For the molecule B2, in the data set on m^7GpppA (AdoPropen, Table 2), the TTN turned out to be 6. Moreover, the “T50 (thermostability)” value in data set [3] is 49.0.

B3: GlaTgs2-V34A, D76V: GlaTgs2 variant with exchanges V34A and D76V, SEQ ID NO: 9 (protein, listed as Giardia lamblia)
chain: B1 chain with D76V
The molecule B3 gave a TTN with m^7GpppA (AdoPropen, Table 2) of 1.

B4: GlaTgs2-V34A, R92A: GlaTgs2 variant with exchanges V34A and R92A, SEQ ID NO: 10 (protein, listed as Giardia lamblia)
chain: B1 chain with R92A
In the data set with m^7GpppA (AdoPropen, Table 2), B4 came in with a TTN of 8.

B5: GlaTgs2-V34A, D76T: GlaTgs2 variant with exchanges V34A and D76T, SEQ ID NO: 8 (protein, listed as Giardia lamblia)
chain: B1 chain with D76L
B5: the TTN with m^7GpppA (AdoPropen, Table 2) was determined as 2.

B6: GlaTgs2-WT: wild type trimethylguanosine synthase 2 from Giardia lamblia, 258 amino acids, SEQ ID NO: 1 (protein, listed as Giardia lamblia)
chain: B1 chain with A34V
As to B6, the TTN in the data set with m^7GpppA (AdoPropen, Table 2) amounted to 3 ± 2. Moreover, in the data set on m^7GpppA (setting [4]), the TTN was 3. Also, in data set [3], the “T50 (thermostability)” value is 39.9 ± 0.2 and the “T50 (15 min)” value was determined as 39.9 ± 0.2 °C.

B7: GlaTgs2-V34A, D76L: GlaTgs2 variant with exchanges V34A and D76L, SEQ ID NO: 7 (protein, listed as Giardia lamblia)
chain: B1 chain with D76T
Take B7: in the data set with m^7GpppA (AdoPropen, Table 2), the TTN is given as 1.

B8: GlaTgs2-V34G: GlaTgs2 variant, valine at position 34 replaced by glycine, SEQ ID NO: 5 (protein, listed as Giardia lamblia)
chain: B1 chain with A34G
Molecule B8 gave a TTN with m^7GpppA (AdoPropen, Table 2) of 5. Besides, the “T50 (thermostability)” value in data set [3] stood at 44.8.
